Key:
[1] = biological target: T1, U1A N-terminal RRM (native) (UniProt P09012 1-102); experiment: SPR
[2] = biological target: T1, U1A N-terminal RRM (native); experiment: SPR; remark: listed apart in the source

T1 sequence (P09012 1-102): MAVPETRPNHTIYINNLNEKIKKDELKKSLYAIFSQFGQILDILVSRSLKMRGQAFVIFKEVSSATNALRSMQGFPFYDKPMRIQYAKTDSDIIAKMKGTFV

B1: TAR (structured_RNA)
RNA: GGCAGAUCUGAGCCUGGGAGCUCUCUGCC
binding result [1]: no binding

B2: U1hpII (structured_RNA)
RNA: AGCUUAUCCAUUGCACUCCGGAUGAGCU
Kd [2]: ~0.04 nM
